From paper PMC10382582 (Cell Discovery, 2023)

Molecular target: biotinylated SARS-CoV-2 prototype RBD (SARS-CoV-2 (prototype), UniProt P0DTC2, biotin (biotinylated; site not stated))
Test: BLI
Details: both partners purified

B1: pan-sarbecovirus mAb S2H97 (antibody, V domains shown)
VH: QVRLVQSGAEVKKSGESLKISCKGSGYSFTSYWIGWVRQMPGKGLEWMGIIYPGDSDTRYSPSFQGQVTISADKSISTVYLQWSSLKASDTAMYYCARQWSHYTYDYYYWGQGTLVTISS
VL: QSVLTQPASVSGSPGQSITISCTGISSDVGGYNSVSWYQQHPGKAPKLMIYDVTNRPSGVSNRFSGSKSGNTASLTISGLQAEDEADYYCSSYTSSSTPPYVFGTGTKVSVL
B1: binds.
